These results are taken from paper doi:10.1101/634550.

The chains are these.
B1: BCCP2 AW box2 (-143/-115) (dsDNA)
DNA 1: CCTACTTCCTCGGTTTCATCGTCCACTG
DNA 2: CAGTGGACGATGAAACCGAGGAAGTAGG
B2: Neg.C (dsDNA)
DNA 1: TGTTACAATCTAGTTACTATTCAGGGTA
DNA 2: TACCCTGAATAGTAACTAGATTGTAACA
B3: BADC1m3 (dsDNA)
DNA 1: CCTTCTTCTTTGGTGCCTCCGTCCGCCG
DNA 2: CGGCGGACGGAGGCACCAAAGAAGAAGG
B4: BADC3 AW box (-94/-67) (dsDNA)
DNA 1: GTTGTGTCCTCGTTCATATCGTTATCGT
DNA 2: ACGATAACGATATGAACGAGGACACAAC
B5: BADC2m3 (dsDNA)
DNA 1: TCGTCTTCCTCGTTCACATCGTTCACTC
DNA 2: GAGTGAACGATGTGAACGAGGAAGACGA
B6: BCCP1 AW box (-67/-40) (dsDNA)
DNA 1: TTGTGCTCTTTGGTTTCATCGAGAGAGA
DNA 2: TCTCTCTCGATGAAACCAAAGAGCACAA
B7: BADC2 AW box (-102/-75) (dsDNA)
DNA 1: TCGTCTTCCTCGTTCGTATCGTTCACTC
DNA 2: GAGTGAACGATACGAACGAGGAAGACGA
B8: BADC1 AW box (-169/-142) (dsDNA)
DNA 1: CCTTCTTCTTTGGTAACTCCGTCCGCCG
DNA 2: CGGCGGACGGAGTTACCAAAGAAGAAGG
B9: BADC3m3 (dsDNA)
DNA 1: GTTGTGTCCTCGTTTACATCGTTATCGT
DNA 2: ACGATAACGATGTAAACGAGGACACAAC
B10: BCCP2 AW box1 (-36/-8) (dsDNA)
DNA 1: TGGGTTTCTTCGTAAGCATCGAAATCAG
DNA 2: CTGATTTCGATGCTTACGAAGAAACCCA

Sequence of GFP-WRI1(58-240), WRINKLED1 DNA-binding domain (Q6X5Y6 58-240): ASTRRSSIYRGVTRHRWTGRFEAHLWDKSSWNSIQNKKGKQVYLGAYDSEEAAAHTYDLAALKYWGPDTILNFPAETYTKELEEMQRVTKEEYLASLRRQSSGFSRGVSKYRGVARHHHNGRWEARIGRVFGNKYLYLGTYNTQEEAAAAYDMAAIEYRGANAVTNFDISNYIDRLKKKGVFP

The data set addresses GFP-WRI1(58-240), WRINKLED1 DNA-binding domain (UniProt Q6X5Y6 58-240). Put plainly: MST.
Molecule B1 had a Kd of 6.68 ± 0.94 nM.
B2: the binding result is recorded as “no binding”.
In turn, B3 came in with a Kd of 70.7 ± 27.8 nM.
The same measure, in the same setting: the same measure for B4: 5.24 ± 2.59 nM.
As for B5, the dissociation constant Kd was 149 ± 139 nM.
On the same count and under the same terms, with B6 the figure was 23.9 ± 4.42 nM; with B7, 2.73 ± 0.72 nM; with B8, 0.27 ± 0.27 nM.
Same read-out and setting: with B9 the figure was 22.9 ± 2.94 nM.
Same read-out and setting: the same measure for B10: 0.65 ± 0.39 nM.

One may read the Kd as the equilibrium constant for the complex coming apart. A high value points to weaker binding.
